Test results published in PMC12506534 (The Journal of Biological Chemistry, 2025).
“And” between values parts separate entries of the source, which are not always exact repeats. Equal entries are not always repeated.

Biological target: the molecule itself
Test: SEC; oligomeric forms of the separately purified proteins; Superdex 200 Increase 10/300 GL, 20 mM HEPES pH 7.5, 150 mM NaCl, 1 mM DTT (Fig. S1, A and B)

B1: Get3(D57N), Saccharomyces cerevisiae (enzyme, S. cerevisiae, UniProt Q12154 1-354, looked up)
chain: MDLTVEPNLHSLITSTTHKWIFVGGKGGVGKTTSSCSIAIQMALSQPNKQFLLISTNPAHNLSDAFGEKFGKDARKVTGMNNLSCMEIDPSAALKDMNDMAVSRANNNGSDGQGDDLGSLLQGGALADLTGSIPGIDEALSFMEVMKHIKRQEQGEGETFDTVIFDTAPTGHTLRFLQLPNTLSKLLEKFGEITNKLGPMLNSFMGAGNVDISGKLNELKANVETIRQQFTDPDLTTFVCVCISEFLSLYETERLIQELISYDMDVNSIIVNQLLFAENDQEHNCKRCQARWKMQKKYLDQIDELYEDFHVVKMPLCAGEIRGLNNLTKFSQFLNKEYNPITDGKVIYELEDKE
notes: Get3, S. cerevisiae, UniProt Q12154, full length, with D57N; Purified in dimeric and tetrameric forms; the dimer was used to form the complex with Get4/5; ATP and MgCl2 were present in the complex, cryo-EM and MST samples; also called D57N variant; ATPase-deficient D57N variant; source: E. coli Rosetta (DE3), purified (Ni-NTA, SEC)
- stoichiometry N: 2 and 4
